Laboratory results: publication PMC12945441 (Science (New York, N.Y.), 2022)

Biological target: prefusion SARS-CoV-2 Omicron BA.1 S ectodomain trimer (SARS-CoV-2 Omicron BA.1 (B.1.1.529), strain)
Test: cryo-EM structure
Conditions: both partners purified

B1: S2X324 Fab fragment (Fab, V domains shown)
VH: QITLKESGPTLVKPTQTLTLTCTFSGFSVTTSGVGVGWIRQPPGKALEYLALIYWDDDKRYSTSLKSRLTITKDTSKNQVVLTMTNMDPVDTATYYCARHTIPSIFDYWGQGILVTVSS
VL: QPVLTQPASVSGSPGQSITISCTATSSDVGNYNYVSWYQHHPGKAPKLMIYEVSNRPSGVSNRFSGSKSGNTASLTISGLQAEDEADYYCSSYTSSSLLFGGGTKLTVL
stoichiometry N: 3 Fabs per S trimer
